Experimental data as given in the Immune Epitope Database (IEDB).
pKd: −log10 of the molar value.

Key:
Assay in all cases: IEDB peptide-MHC binding, purified MHC/competitive/radioactivity; filed as Kd, often an IC50 or EC50 that approximates it; ≥ and ≤ were set here for values at or beyond the usual limits of such assays
HLA-A*02:03 = target: HLA-A*02:03
HLA-A*02:02 = target: HLA-A*02:02
HLA-A*02:06 = target: HLA-A*02:06
HLA-A*31:01 = target: HLA-A*31:01
HLA-A*11:01 = target: HLA-A*11:01
HLA-A*33:01 = target: HLA-A*33:01
HLA-A*68:01 = target: HLA-A*68:01
HLA-A*03:01 = target: HLA-A*03:01
[1] = source organism: Vaccinia virus WR
[2] = source organism: Dengue virus 4 Philippines/H241/1956
[3] = source organism: Dengue virus 2 Jamaica/1409/1983
[4] = source organism: Lassa virus Josiah
[5] = source organism: SARS coronavirus Tor2
[6] = source organism: Lymphocytic choriomeningitis virus (strain Armstrong)

Work on VIKLVKSLV yielded a pKd (HLA-A*02:03; [1]) of 6.90, a pKd (HLA-A*02:02; [1]) of 5.99 and a pKd (HLA-A*02:06; [1]) of 5.39.

SADNHPKMI showed a pKd (HLA-A*02:03; [1]) of at most 4.36, a pKd (HLA-A*02:02; [1]) of 5.09 and a pKd (HLA-A*02:06; [1]) of at most 4.11.

Work on RIASILSLET yielded a pKd (HLA-A*02:03; [1]) of 6.35, a pKd (HLA-A*02:02; [1]) of 6.23 and a pKd (HLA-A*02:06; [1]) of 6.12.

In the case of MIGNYFSGVL, the pKd (HLA-A*02:03; [1]) was 6.12, the pKd (HLA-A*02:02; [1]) was 6.15 and the pKd (HLA-A*02:06; [1]) was 5.88.

NTVGMSIVCI gave a pKd (HLA-A*02:03; [1]) of 5.81, a pKd (HLA-A*02:02; [1]) of 5.52 and a pKd (HLA-A*02:06; [1]) of 5.92.

For IIYSKAGNIL, the pKd (HLA-A*02:03; [1]) was 6.96, the pKd (HLA-A*02:02; [1]) was 8.07 and the pKd (HLA-A*02:06; [1]) was 6.47.

In the case of NQAVVLMGL, the pKd (HLA-A*02:06; source organism: Dengue virus 3 Martinique/1243/1999) was 7.05.

In the case of VLSIPPTAGI, the pKd (HLA-A*02:03; [2]) was 6.65.

RTLILAPTRV was tested, and the pKd (HLA-A*02:06; [3]) was 6.33.

Sequence YCSNIKLQVV has a pKd (HLA-A*02:03; [4]) of 6.10, a pKd (HLA-A*02:02; [4]) of 5.91 and a pKd (HLA-A*02:06; [4]) of 5.15.

RISSSLDQT was tested, and the pKd (HLA-A*02:03; [1]) was 4.89, the pKd (HLA-A*02:02; [1]) was 5.17 and the pKd (HLA-A*02:06; [1]) was at most 4.56.

NVIEDITFL showed a pKd (HLA-A*02:03; [1]) of 6.52, a pKd (HLA-A*02:02; [1]) of 6.84 and a pKd (HLA-A*02:06; [1]) of 7.59.

TVKNVDIIDL showed a pKd (HLA-A*02:03; [1]) of 5.08, a pKd (HLA-A*02:02; [1]) of at most 4.50 and a pKd (HLA-A*02:06; [1]) of 4.91.

Work on GLSDRVVFV yielded a pKd (HLA-A*02:03; [5]) of 8.97, a pKd (HLA-A*02:02; [5]) of 8.98 and a pKd (HLA-A*02:06; [5]) of 7.16.

For CVKYLLDNDI, the pKd (HLA-A*02:03; [1]) was 5.25, the pKd (HLA-A*02:02; [1]) was at most 4.50 and the pKd (HLA-A*02:06; [1]) was 5.12.

For TILDDNLYKV, the pKd (HLA-A*02:03; [1]) was 5.79, the pKd (HLA-A*02:02; [1]) was 5.97 and the pKd (HLA-A*02:06; [1]) was 7.31.

Work on NVFISPASI yielded a pKd (HLA-A*02:03; [1]) of 9.14, a pKd (HLA-A*02:02; [1]) of 6.69 and a pKd (HLA-A*02:06; [1]) of 6.18.

TQLFKYVPSA was tested, and the pKd (HLA-A*02:03; [1]) was at most 4.15, the pKd (HLA-A*02:02; [1]) was at most 4.15 and the pKd (HLA-A*02:06; [1]) was at most 4.16.

With VTKRDESSI the pKd (HLA-A*02:03; [1]) was 5.67, the pKd (HLA-A*02:02; [1]) was 5.09 and the pKd (HLA-A*02:06; [1]) was at most 4.42.

In the case of TMWHVTRGAV, the pKd (HLA-A*02:03; [3]) was 6.42.

LAIKNYYRKT gave a pKd (HLA-A*02:03; [1]) of 5.14, a pKd (HLA-A*02:02; [1]) of at most 4.43 and a pKd (HLA-A*02:06; [1]) of at most 4.16.

Work on VIRHVDGKI yielded a pKd (HLA-A*02:03; [1]) of 6.01, a pKd (HLA-A*02:02; [1]) of 5.07 and a pKd (HLA-A*02:06; [1]) of 5.03.

LATLNTLITL gave a pKd (HLA-A*02:03; [1]) of 6.47, a pKd (HLA-A*02:02; [1]) of 6.86 and a pKd (HLA-A*02:06; [1]) of 6.49.

ALMTLDDLAI showed a pKd (HLA-A*02:03; [1]) of 7.53, a pKd (HLA-A*02:02; [1]) of 7.85 and a pKd (HLA-A*02:06; [1]) of 7.62.

In the case of LLENKSLTIL, the pKd (HLA-A*02:03; [1]) was 6.27, the pKd (HLA-A*02:02; [1]) was 6.73 and the pKd (HLA-A*02:06; [1]) was 5.13.

With DMDFDLNIFM the pKd (HLA-A*02:03; [1]) was at most 5.30, the pKd (HLA-A*02:02; [1]) was 5.94 and the pKd (HLA-A*02:06; [1]) was 5.27.

With ETAIRAGYSI the pKd (HLA-A*02:03; [1]) was at most 4.53, the pKd (HLA-A*02:02; [1]) was at most 4.59 and the pKd (HLA-A*02:06; [1]) was 4.75.

Work on NQILEENMEV yielded a pKd (HLA-A*02:06; [2]) of 7.54.

For ITRLEVIGL, the pKd (HLA-A*02:03; [1]) was 6.67, the pKd (HLA-A*02:02; [1]) was 5.26 and the pKd (HLA-A*02:06; [1]) was 6.11.

In the case of MMILPAALA, the pKd (HLA-A*02:03; source organism: Dengue virus 3 Sri Lanka/1266/2000) was 7.33.

GLDERFVEEL showed a pKd (HLA-A*02:03; [1]) of 5.92, a pKd (HLA-A*02:02; [1]) of 7.03 and a pKd (HLA-A*02:06; [1]) of 5.60.

EVIGLTTHCT gave a pKd (HLA-A*02:03; [1]) of 4.83, a pKd (HLA-A*02:02; [1]) of 4.98 and a pKd (HLA-A*02:06; [1]) of 4.91.

In the case of FTSYKRFVT, the pKd (HLA-A*02:03; [1]) was 5.47, the pKd (HLA-A*02:02; [1]) was 5.63 and the pKd (HLA-A*02:06; [1]) was 4.91.

DIMLPESDL was tested, and the pKd (HLA-A*02:03; [1]) was at most 4.45, the pKd (HLA-A*02:02; [1]) was 4.73 and the pKd (HLA-A*02:06; [1]) was at most 4.50.

For RLFTRCAVI, the pKd (HLA-A*02:03; [1]) was 6.60, the pKd (HLA-A*02:02; [1]) was 7.03 and the pKd (HLA-A*02:06; [1]) was 5.55.

With IVNNFITKEI the pKd (HLA-A*02:03; [1]) was 6.72, the pKd (HLA-A*02:02; [1]) was 5.83 and the pKd (HLA-A*02:06; [1]) was 4.85.

With VLIFILLTA the pKd (HLA-A*02:03; source organism: Dengue virus 2 Peru/IQT2913/1996) was 6.85.

Sequence ETIEILRNYL has a pKd (HLA-A*02:03; [1]) of 5.85, a pKd (HLA-A*02:02; [1]) of 6.32 and a pKd (HLA-A*02:06; [1]) of 9.56.

RNHLRDLMGV was tested, and the pKd (HLA-A*02:03; [6]) was 6.13, the pKd (HLA-A*02:02; [6]) was 6.37 and the pKd (HLA-A*02:06; [6]) was 6.97.

Sequence ALCESITLA has a pKd (HLA-A*02:03; source organism: Dengue virus 1 Brazil/97-11/1997) of 7.76.

Work on NTDHPLSINV yielded a pKd (HLA-A*02:03; [1]) of 6.23, a pKd (HLA-A*02:02; [1]) of 6.41 and a pKd (HLA-A*02:06; [1]) of 8.79.

ALKNSQAELT gave a pKd (HLA-A*02:03; [1]) of 6.01, a pKd (HLA-A*02:02; [1]) of 5.67 and a pKd (HLA-A*02:06; [1]) of at most 4.57.

Sequence AVYFKAKWLT has a pKd (HLA-A*02:03; [1]) of 5.05, a pKd (HLA-A*02:02; [1]) of at most 4.57 and a pKd (HLA-A*02:06; [1]) of 5.06.

Work on NITPDDGLGL yielded a pKd (HLA-A*02:03; [1]) of 5.89, a pKd (HLA-A*02:02; [1]) of 5.72 and a pKd (HLA-A*02:06; [1]) of 5.46.

Sequence IVAALVFLI has a pKd (HLA-A*02:03; [5]) of 7.81, a pKd (HLA-A*02:02; [5]) of 9.86 and a pKd (HLA-A*02:06; [5]) of 8.74.

In the case of LAFVVFLLV, the pKd (HLA-A*02:03; [5]) was 5.90, the pKd (HLA-A*02:02; [5]) was 6.34 and the pKd (HLA-A*02:06; [5]) was 6.60.

KTRLFRSPQV gave a pKd (HLA-A*02:03; [1]) of 6.01, a pKd (HLA-A*02:02; [1]) of 5.03 and a pKd (HLA-A*02:06; [1]) of 6.36.

DTDIFSPENK was tested, and the pKd (HLA-A*31:01; [1]) was at most 4.65, the pKd (HLA-A*11:01; [1]) was 5.77 and the pKd (HLA-A*33:01; [1]) was 4.77. The pKd (HLA-A*68:01; [1]) was 7.37 and the pKd (HLA-A*03:01; [1]) was 5.23.

With SLTTIGTIA the pKd (HLA-A*02:03; [1]) was 8.43, the pKd (HLA-A*02:02; [1]) was 8.98 and the pKd (HLA-A*02:06; [1]) was 6.31.

Work on GLSSGFYFEI yielded a pKd (HLA-A*02:03; [1]) of 6.11, a pKd (HLA-A*02:02; [1]) of 7.32 and a pKd (HLA-A*02:06; [1]) of 5.76.

In the case of TLKYPIEHGI, the pKd (HLA-A*02:06; source organism: Homo sapiens) was at most 4.58.

QLQLLMPLK showed a pKd (HLA-A*31:01; [5]) of 5.83, a pKd (HLA-A*11:01; [5]) of 7.84 and a pKd (HLA-A*33:01; [5]) of 5.63. It also gave a pKd (HLA-A*68:01; [5]) of 4.87 and a pKd (HLA-A*03:01; [5]) of 6.82.

NAKVGDDVK was tested, and the pKd (HLA-A*31:01; [1]) was 5.00, the pKd (HLA-A*11:01; [1]) was 6.41 and the pKd (HLA-A*33:01; [1]) was 4.77. The pKd (HLA-A*68:01; [1]) was 6.32 and the pKd (HLA-A*03:01; [1]) was at most 4.11.

Sequence DIRDKYMEL has a pKd (HLA-A*02:03; [1]) of 5.41, a pKd (HLA-A*02:02; [1]) of at most 4.61 and a pKd (HLA-A*02:06; [1]) of 4.84.

For YAAEMVEYL, the pKd (HLA-A*02:03; [1]) was 8.68, the pKd (HLA-A*02:02; [1]) was 9.28 and the pKd (HLA-A*02:06; [1]) was 7.93.
